Experimental data from patent US11529426B2, “Methods and compositions for targeting tissue lesions” (priority 2017, dated 2022).

B1: MabCII: monoclonal antibody to type II collagen from E4-D4 (E4) hybridoma clone; mouse IgG2a heavy chain, kappa light chain; VH/VL SEQ ID NO: 6/14 (antibody, listed as Mus musculus, V domains shown)
VH: EVQLVESGGGLVKPGGSLKVSCEASGFTFSDYGMHWVRQAPEKGLEWVAYISSVSSTIYYADTVEGRFTISRDNVRNTLFLQMTSLRSEDTAMYYCAREGWLPLFAFWGQGTLVTVSA
VL: DIVLTQSHKFMSTSVGDRVSITCKASQDVSITVAWYQQKPGQSPKLLIYSASYRNPGVPDRFTGSGSGTDFNFTISTVQAEDLAVYYCQQYYIIPWTFGGGTKLEFKR

How the values were obtained:
[1] = test system: mechanically loaded mouse knee; assay: Mechanically loaded mouse knee (PTOA), E4 nanosomes: cartilage damage by MabCII680 fluorescence; format: in vivo, C57BL/6 mice; conditions: intravenous, 100 uM TPCA-1, 3 injections, two-week loading; vs empty nanosomes (Control)
Description: (§1) Targeted nanosomes were generated from lipids and conjugated to purified E4-D4 (E4) monoclonal antibody to type II collagen that was developed from a hybridoma isolated from mice immunized with type II collagen. Briefly, the lipid film which contained dioleoyl-sn-glycero-3-phosphocholine (DOPC), cholesterol, 1,2-distearoyl-sn-glycero-3-phosphoethanolamine-N-[maleimide (polyethylene glycol) 2000] (DSPE-PEG-maleimide) and TPCA-1 was rehydrated with phosphate buffered saline (PBS) and sonicated. The rehydrated lipids were repeatedly extruded through a 200 nm porous membrane to generate 200 nm 1-3 walled nanosomes. The E4 MabCII was thiolated using Traut's reagent, then mixed with the nanosomes for conjugation. […] The E4 MabCII was also conjugated to the near infrared dye XenoLight CF 680 (PerkinElmer) used for the final quantitative imaging of arthritic damage. […]
(§2) At the completion of the two-week loading period, mice were injected retro-orbitally with 100 μL composite mixture of 50 μL of 1 mg/ml E4 monoclonal antibody to type II collagen MabCII680 labeled with Xenolight CF 680 fluorescent dye and 50 μL of MMPSense-750 (Perkin-Elmer, Waltham, Mass.), a substrate that fluoresces when cleaved by MMPs. After 24 hours, the mice were anesthetized and the knee joints were optically scanned for each type of fluorescence using a Lumina XR Imaging System (Perkin Elmer, Waltham, Mass.).

MMPs = assay: Mechanically loaded mouse knee (PTOA), E4 nanosomes: MMP activity by MMPSense-750 fluorescence; format: in vivo, C57BL/6 mice; conditions: intravenous, 100 uM TPCA-1, 3 injections, two-week loading; vs control nanosomes
Description: as §1, §2

[2] = test system: mechanically loaded mouse knee; assay: Mechanically loaded mouse knee, D1 2G nanosomes: cartilage damage by MabCII680 fluorescence; format: in vivo, C57BL/6 mice; conditions: intraarticular 50 μL, 500 μM TPCA-1, 2 injections, two-week loading; vs PBS
Description: Targeted nanosomes were generated from lipids and conjugated to purified D1 2G monoclonal antibody from a hybridoma isolated from mice immunized with type II collagen (MabCII). Briefly, the lipid film which contained 5.2 μmol dioleoyl-sn-glycero-3-phosphocholine (DOPC), 4.5 μmol cholesterol, 0.3 μmol 1,2-distearoyl-sn-glycero-3-phosphoethanolamine-N-[maleimide (polyethylene glycol) 2000] (DSPE-PEG-maleimide) and TPCA-1 was rehydrated with phosphate buffered saline (PBS) and sonicated. The rehydrated lipids were repeatedly extruded through a 200 nm porous membrane to generate 200 nm 1-3 walled nanosomes. The MabCII were thiolated using Traut's reagent, then mixed with the nanosomes for conjugation. After conjugation, the reaction mixture was chromatographed on a Sepharose CL-4B column to separate the free antibodies from the coupled liposomes. […]
as §2, with “of” for “of 1 mg/ml E4”, “(MabCII680)” for “MabCII680”, “XenoFluor” for “Xenolight CF”, “680 (XF680; Caliper)” for “680”, “Mass.)” for “Mass.),”, “XR” for “XR Imaging System”

[3] = test system: collagen-induced arthritis; conditions: mice, reference [20]; cited from earlier work
[4] = test system: exposed type II collagen in articular cartilage explants; assay: Binding of fluorescent avidin/biotinylated reparative cells to cartilage explants pre-incubated with biotinylated antibody (IVIS imaging); design: species or system domestic pigs; conditions: for binding of fluorescent avidin/biotinylated ADSC cells to cartilage explant: biotinylated antibody 1 hr
Protocol: Type II collagen monoclonal antibody (MabCII) at a concentration of 1 mg/mL was buffer exchanged with phosphate buffered saline (PBS). The linking reagent NHS-PEG4-Biotin (Thermo Scientific) was then brought up in distilled water to a recommended 20-fold molar excess of Biotin per mg/mL of MabCII. The biotinylated MabCII sample was then added to a Zeba spin desalting column (Thermo Scientific) column and centrifuged at 1000×g for 2 minutes in order to remove excess biotin reagent. The collected flow-through solution was the purified sample. As a control, irrelevant monoclonal mouse IgG antibody of the same subclass (Isotope Control from R&D Systems, Inc.) was similarly prepared.
The reparative cells (isolated chondrocytes or chondrogenically differentiated ADSCs) previously labeled with a fluorescent dye (Vivotrack 680: PerkinElmer, MA), were re-suspended at 1×10^6 cells/ml in fresh serum-free medium with 250 mM sucrose, 1 mM HEPES, and 1 mM CaCl2. The PE-PEG-Biotin stock solution (1 mM) was then added to the various tubes at 25 μM final concentration and incubated for 60 minutes to allow PE-PEG-Biotin integration into the cell membranes. Neutravidin was dissolved in PBS and added to the PE-PEG-Biotin labeled cells at a final concentration of […] of Neutravidin. The tubes were then allowed to incubate on a rocker platform for 30 minutes at 37° C. for binding. After incubation, the cells were centrifuged, supernatants were discarded, and serum-free medium was added and the cells vortexed ready to incubate with the cartilage explants.
Cartilage explants were harvested from the articular cartilage of femoral condyles of domestic pigs ranging from 25 to 30 kilograms and were punched from cartilage explants taken from the surface of articular cartilage with a 6 mm dermal punch to provide equivalent surface areas. The cartilage explants were divided into two groups for incubation with biotinylated Mab; one group that would be mechanically damaged and one group with no damage (normal). […]

[5] = test system: type II collagen (Col2a1) expression; assay: Type II collagen gene expression (PCR) of reparative cells bound to devitalized scratched cartilage explants; format: cell-based, pig; conditions: one week
Protocol: For evaluation of gene expression of the reparative cells attaching to cartilage explants with the two step MabCII, biotin-avidin system described above, cartilage explants were devitalized by freeze thawing and washed three times before incubation with biotinylated MabCII and avidin/biotinylated chondrocytes or avidin/biotinylated chondrogenically differentiated ADSC cells as described above. After washing to remove unbound cells, the cells bound to the explants were incubated for one week in complete F12K culture medium with 10% FCS. The explants were then washed and the RNA extracted with Trizol for quantitative polymerase chain reaction (PCR) for the cartilage specific-type II collagen expression. Quantitative gene expression was analyzed by PCR using primers specific for type II collagen (Col-II) and the housekeeping gene glyceraldehyde-3-phosphate dehydrogenase (GAPDH). Gene expression was calculated as 2^−ΔΔCT after normalization to GAPDH expression. For some experiments gene expression from avidin/biotinylated cells that were incubated in standard tissue culture wells or incubated with cartilage with no antibody for the same period of time were set as 1+/− standard error of the mean (SEM) and compared to same type of cells binding to the cartilage explants.

Row | Molecule | cartilage damage: binding of MabCII680, intensity in region of interest [1] | MMP activity: fluorescence of MMPSense-750 (MMPs) | cartilage damage: binding of MabCII680, intensity in region of interest [2] | proinflammatory mediators in collagen-induced arthritis [3] | binding of isolated articular chondrocytes to cartilage explant ([4]; avidin/biotinylated chondrocytes, data not shown) | binding of fluorescent avidin/biotinylated ADSC cells to cartilage explant ([4]; damaged (scratched) cartilage) | binding of fluorescent avidin/biotinylated ADSC cells to cartilage explant ([4]; normal (unscratched) articular cartilage) | expression of CII relative to cells maintained without cartilage in standard tissue culture ([5]; articular chondrocytes on explants) | type II collagen (Col2a1) gene expression of targeted cells ([5]; avidin/biotinylated ADSC, FIG. 9B) | type II collagen (Col2a1) gene expression of targeted cells ([5]; avidin/biotinylated chondrocytes, FIG. 9A)
1 | NC(=O)Nc1sc(-c2ccc(F)cc2)cc1C(N)=O [TPCA-1, 2-[(aminocarbonyl)amino]-5-(4-fluorophenyl)-3-thiophenecarboxamide] | did not show significant improvement | did not show significant reduction | no improvement | reduce proinflammatory mediators such as TNF-α | – | – | – | – | – | –
2 | B1 | – | – | – | – | same specificity of binding | significant amount of reparative cells binding | not detectable | equivalent | continue to express type II collagen | continue to express type II collagen
